Test results reported in US20180155451A1 (published 2018).

T1: FcγRIIb (human, UniProt P31994 43-217)
T1 construct: extracellular domain; also called FcgRIIb; 2b
T1 sequence (looked up): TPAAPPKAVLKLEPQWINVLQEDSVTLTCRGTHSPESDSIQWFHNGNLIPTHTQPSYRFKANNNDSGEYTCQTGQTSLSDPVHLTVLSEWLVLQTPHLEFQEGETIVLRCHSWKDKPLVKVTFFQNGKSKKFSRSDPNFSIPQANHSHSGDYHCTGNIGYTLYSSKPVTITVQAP

B1: GpH7-A5/GpH7-B3 variant (G236_04F)/GpL16-k0 (antibody, human IgG1, kappa)
heavy 1: not shown
heavy 2: not shown
light: DIVMTQSPLSLPVTPGEPASISCQASESLVHSNRNTYLHWYLQKPGQSPQLLIYKVSNRFSGVPDRFSGSGSGTDFTLKISRVEAEDVGVYYCSQNTHVPPTFGQGTKVEIERTVAAPSVFIFPPSDEQLKSGTASVVCLLNNFYPREAKVQWKVDNALQSGNSQESVTEQDSKDSTYSLSSTLTLSKADYEKHKVYACEVTHQGLSSPVTKSFNRGEC
notes: IgG1 heterodimer, mutation in the GpH7-B3 chain only; also called He Ab
B2: GpH7-A5/GpH7-B3 variant (L234_11K)/GpL16-k0 (antibody, human IgG1, kappa)
heavy 1: not shown
heavy 2: not shown
light: B1 light
notes: as for B1
B3: GpH7-A5/GpH7-B3 variant (L235_18N)/GpL16-k0 (antibody, human IgG1, kappa)
heavy 1: not shown
heavy 2: not shown
light: B1 light
notes: as for B1
B4: GpH7-A5/GpH7-B3 variant (L235_13S)/GpL16-k0 (antibody, human IgG1, kappa)
heavy 1: not shown
heavy 2: not shown
light: B1 light
notes: as for B1
B5: GpH7-A5/GpH7-B3 variant (L234_13S)/GpL16-k0 (antibody, human IgG1, kappa)
heavy 1: not shown
heavy 2: not shown
light: B1 light
notes: as for B1
B6: GpH7-A5/GpH7-B3 variant (L235_05P)/GpL16-k0 (antibody, human IgG1, kappa)
heavy 1: not shown
heavy 2: not shown
light: B1 light
notes: as for B1
B7: GpH7-A5/GpH7-B3 variant (H268_08L)/GpL16-k0 (antibody, human IgG1, kappa)
heavy 1: not shown
heavy 2: not shown
light: B1 light
notes: as for B1
B8: GpH7-A5/GpH7-B3 variant (G236_20W)/GpL16-k0 (antibody, human IgG1, kappa)
heavy 1: not shown
heavy 2: not shown
light: B1 light
notes: IgG1 heterodimer, G236W in the GpH7-B3 chain only; also called GpH7-A5/GpH7-B3-03-20W/GpL16-k0; He Ab
B9: GpH7-A5/GpH7-B3 variant (G236_08L)/GpL16-k0 (antibody, human IgG1, kappa)
heavy 1: not shown
heavy 2: not shown
light: B1 light
notes: as for B1
B10: GpH7-A5/GpH7-B3 variant (L235_01G)/GpL16-k0 (antibody, human IgG1, kappa)
heavy 1: not shown
heavy 2: not shown
light: B1 light
notes: as for B1
B11: GpH7-A5/GpH7-B3 variant (L234_06M)/GpL16-k0 (antibody, human IgG1, kappa)
heavy 1: not shown
heavy 2: not shown
light: B1 light
notes: as for B1
B12: GpH7-A5/GpH7-B3 variant (G236_19Q)/GpL16-k0 (antibody, human IgG1, kappa)
heavy 1: not shown
heavy 2: not shown
light: B1 light
notes: as for B1
B13: GpH7-A5/GpH7-B3 variant (L235_03V)/GpL16-k0 (antibody, human IgG1, kappa)
heavy 1: not shown
heavy 2: not shown
light: B1 light
notes: as for B1
B14: GpH7-A5/GpH7-B3 variant (G236_16H)/GpL16-k0 (antibody, human IgG1, kappa)
heavy 1: not shown
heavy 2: not shown
light: B1 light
notes: as for B1
B15: GpH7-A5/GpH7-B3 variant (G236_11K)/GpL16-k0 (antibody, human IgG1, kappa)
heavy 1: not shown
heavy 2: not shown
light: B1 light
notes: as for B1
B16: GpH7-A5/GpH7-B3 variant (G237_03V)/GpL16-k0 (antibody, human IgG1, kappa)
heavy 1: not shown
heavy 2: not shown
light: B1 light
notes: as for B1
B17: GpH7-A5/GpH7-B3 variant (G237_05P)/GpL16-k0 (antibody, human IgG1, kappa)
heavy 1: not shown
heavy 2: not shown
light: B1 light
notes: as for B1
B18: GpH7-A5/GpH7-B3 variant (L235_06M)/GpL16-k0 (antibody, human IgG1, kappa)
heavy 1: not shown
heavy 2: not shown
light: B1 light
notes: as for B1
B19: GpH7-A5/GpH7-B3 variant (L234_16H)/GpL16-k0 (antibody, human IgG1, kappa)
heavy 1: not shown
heavy 2: not shown
light: B1 light
notes: as for B1
B20: GpH7-A5/GpH7-B3 variant (L234_07I)/GpL16-k0 (antibody, human IgG1, kappa)
heavy 1: not shown
heavy 2: not shown
light: B1 light
notes: as for B1
B21: GpH7-A5/GpH7-B3 variant (H268_14T)/GpL16-k0 (antibody, human IgG1, kappa)
heavy 1: not shown
heavy 2: not shown
light: B1 light
notes: as for B1
B22: GpH7-A5/GpH7-B3 variant (L234_01G)/GpL16-k0 (antibody, human IgG1, kappa)
heavy 1: not shown
heavy 2: not shown
light: B1 light
notes: as for B1
B23: GpH7-A5/GpH7-B3 variant (H268_06M)/GpL16-k0 (antibody, human IgG1, kappa)
heavy 1: not shown
heavy 2: not shown
light: B1 light
notes: as for B1
B24: GpH7-A5/GpH7-B3 variant (L234_14T)/GpL16-k0 (antibody, human IgG1, kappa)
heavy 1: not shown
heavy 2: not shown
light: B1 light
notes: as for B1
B25: GpH7-A5/GpH7-B3 variant (L234_04F)/GpL16-k0 (antibody, human IgG1, kappa)
heavy 1: not shown
heavy 2: not shown
light: B1 light
notes: as for B1
B26: GpH7-A5/GpH7-B3 variant (L234_19Q)/GpL16-k0 (antibody, human IgG1, kappa)
heavy 1: not shown
heavy 2: not shown
light: B1 light
notes: as for B1
B27: GpH7-A5/GpH7-B3 variant (H268_04F)/GpL16-k0 (antibody, human IgG1, kappa)
heavy 1: not shown
heavy 2: not shown
light: B1 light
notes: as for B1
B28: GpH7-A5/GpH7-B3 variant (G236_14T)/GpL16-k0 (antibody, human IgG1, kappa)
heavy 1: not shown
heavy 2: not shown
light: B1 light
notes: as for B1
B29: GpH7-A5/GpH7-B3 variant (H268_11K)/GpL16-k0 (antibody, human IgG1, kappa)
heavy 1: not shown
heavy 2: not shown
light: B1 light
notes: as for B1
B30: GpH7-A5/GpH7-B3 variant (G236_15Y)/GpL16-k0 (antibody, human IgG1, kappa)
heavy 1: not shown
heavy 2: not shown
light: B1 light
notes: as for B1
B31: GpH7-A5/GpH7-B3 variant (L234_03V)/GpL16-k0 (antibody, human IgG1, kappa)
heavy 1: not shown
heavy 2: not shown
light: B1 light
notes: as for B1
B32: GpH7-A5/GpH7-B3 variant (L234_05P)/GpL16-k0 (antibody, human IgG1, kappa)
heavy 1: not shown
heavy 2: not shown
light: B1 light
notes: as for B1
B33: GpH7-A5/GpH7-B3 variant (G236_06M)/GpL16-k0 (antibody, human IgG1, kappa)
heavy 1: not shown
heavy 2: not shown
light: B1 light
notes: as for B1
B34: GpH7-A5/GpH7-B3 variant (L235_02A)/GpL16-k0 (antibody, human IgG1, kappa)
heavy 1: not shown
heavy 2: not shown
light: B1 light
notes: as for B1
B35: GpH7-A5/GpH7-B3 variant (L234_15Y)/GpL16-k0 (antibody, human IgG1, kappa)
heavy 1: not shown
heavy 2: not shown
light: B1 light
notes: IgG1 heterodimer, L234Y in the GpH7-B3 chain only; also called GpH7-A5/GpH7-B3-01-15Y/GpL16-k0; He Ab
B36: GpH7-A5/GpH7-B3 variant (L235_14T)/GpL16-k0 (antibody, human IgG1, kappa)
heavy 1: not shown
heavy 2: not shown
light: B1 light
notes: as for B1
B37: GpH7-A5/GpH7-B3 variant (H268_12R)/GpL16-k0 (antibody, human IgG1, kappa)
heavy 1: not shown
heavy 2: not shown
light: B1 light
notes: as for B1
B38: GpH7-A5/GpH7-B3 variant (L235_11K)/GpL16-k0 (antibody, human IgG1, kappa)
heavy 1: not shown
heavy 2: not shown
light: B1 light
notes: as for B1
B39: GpH7-A5/GpH7-B3 variant (G236_12R)/GpL16-k0 (antibody, human IgG1, kappa)
heavy 1: not shown
heavy 2: not shown
light: B1 light
notes: as for B1
B40: GpH7-A5/GpH7-B3 variant (G236_05P)/GpL16-k0 (antibody, human IgG1, kappa)
heavy 1: not shown
heavy 2: not shown
light: B1 light
notes: as for B1
B41: GpH7-A5/GpH7-B3 variant (H268_07I)/GpL16-k0 (antibody, human IgG1, kappa)
heavy 1: not shown
heavy 2: not shown
light: B1 light
notes: as for B1
B42: GpH7-A5/GpH7-B3 variant (L234_12R)/GpL16-k0 (antibody, human IgG1, kappa)
heavy 1: not shown
heavy 2: not shown
light: B1 light
notes: as for B1
B43: GpH7-A5/GpH7-B3 variant (G236_07I)/GpL16-k0 (antibody, human IgG1, kappa)
heavy 1: not shown
heavy 2: not shown
light: B1 light
notes: as for B1
B44: GpH7-A5/GpH7-B3 variant (L234_02A)/GpL16-k0 (antibody, human IgG1, kappa)
heavy 1: not shown
heavy 2: not shown
light: B1 light
notes: as for B1

biological target: T2, FcγRIa (human, UniProt P12314 16-292); experiment: SPR, captured antibody; relative to GpH7-A5/GpH7-B3/GpL16-k0
T2 construct: extracellular domain; also called FcgRI; 1a
T2 sequence (P12314 16-292): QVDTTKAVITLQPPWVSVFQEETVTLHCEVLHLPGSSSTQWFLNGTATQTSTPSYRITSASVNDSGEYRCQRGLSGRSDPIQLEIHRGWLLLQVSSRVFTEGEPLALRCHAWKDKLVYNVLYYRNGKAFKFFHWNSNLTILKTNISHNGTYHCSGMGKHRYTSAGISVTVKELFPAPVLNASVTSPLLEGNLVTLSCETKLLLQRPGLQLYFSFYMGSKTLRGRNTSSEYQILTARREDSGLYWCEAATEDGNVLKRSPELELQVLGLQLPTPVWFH

Binder	He/Con_1a
B1	96.4 relative, HeCon Ab = 100
B2	91.8 relative, HeCon Ab = 100
B3	92.2 relative, HeCon Ab = 100
B4	90.5 relative, HeCon Ab = 100
B5	96.9 relative, HeCon Ab = 100
B6	94.7 relative, HeCon Ab = 100
B7	107 relative, HeCon Ab = 100
B8	105 relative, HeCon Ab = 100
B9	79.6 relative, HeCon Ab = 100
B10	87.2 relative, HeCon Ab = 100
B11	104 relative, HeCon Ab = 100
B12	92.1 relative, HeCon Ab = 100
B13	94.7 relative, HeCon Ab = 100
B14	83.5 relative, HeCon Ab = 100
B15	71 relative, HeCon Ab = 100
B16	78.5 relative, HeCon Ab = 100
B17	44.5 relative, HeCon Ab = 100
B18	98 relative, HeCon Ab = 100
B19	94 relative, HeCon Ab = 100
B20	103 relative, HeCon Ab = 100
B21	112 relative, HeCon Ab = 100
B22	96.1 relative, HeCon Ab = 100

Binder	He/Con_1a
B23	105 relative, HeCon Ab = 100
B24	98.6 relative, HeCon Ab = 100
B25	101 relative, HeCon Ab = 100
B26	95.7 relative, HeCon Ab = 100
B27	106 relative, HeCon Ab = 100
B28	92.2 relative, HeCon Ab = 100
B29	106 relative, HeCon Ab = 100
B30	92.5 relative, HeCon Ab = 100
B31	104 relative, HeCon Ab = 100
B32	99.9 relative, HeCon Ab = 100
B33	96.7 relative, HeCon Ab = 100
B34	92.2 relative, HeCon Ab = 100
B35	100 relative, HeCon Ab = 100
B36	88.7 relative, HeCon Ab = 100
B37	106 relative, HeCon Ab = 100
B38	79.9 relative, HeCon Ab = 100
B39	63.1 relative, HeCon Ab = 100
B40	77 relative, HeCon Ab = 100
B41	108 relative, HeCon Ab = 100
B42	91.8 relative, HeCon Ab = 100
B43	87.5 relative, HeCon Ab = 100
B44	97.5 relative, HeCon Ab = 100

biological target: T1, FcγRIIb; experiment: as above

Binder	He/Con_2b
B1	39.3 relative, HeCon Ab = 100
B2	16.2 relative, HeCon Ab = 100
B3	54.9 relative, HeCon Ab = 100
B4	48.2 relative, HeCon Ab = 100
B5	59.3 relative, HeCon Ab = 100
B6	54.7 relative, HeCon Ab = 100
B7	67.8 relative, HeCon Ab = 100
B8	58.2 relative, HeCon Ab = 100
B9	26.8 relative, HeCon Ab = 100
B10	35.4 relative, HeCon Ab = 100
B11	78.5 relative, HeCon Ab = 100
B12	46.6 relative, HeCon Ab = 100
B13	66.4 relative, HeCon Ab = 100
B14	27.9 relative, HeCon Ab = 100
B15	49.8 relative, HeCon Ab = 100
B16	61.4 relative, HeCon Ab = 100
B17	24.6 relative, HeCon Ab = 100
B18	81 relative, HeCon Ab = 100
B19	59.4 relative, HeCon Ab = 100
B20	80.9 relative, HeCon Ab = 100
B21	86 relative, HeCon Ab = 100
B22	50.7 relative, HeCon Ab = 100

Binder	He/Con_2b
B23	65.7 relative, HeCon Ab = 100
B24	62.5 relative, HeCon Ab = 100
B25	99.8 relative, HeCon Ab = 100
B26	60.3 relative, HeCon Ab = 100
B27	89.6 relative, HeCon Ab = 100
B28	57.8 relative, HeCon Ab = 100
B29	83 relative, HeCon Ab = 100
B30	39.5 relative, HeCon Ab = 100
B31	73.1 relative, HeCon Ab = 100
B32	72.9 relative, HeCon Ab = 100
B33	45.5 relative, HeCon Ab = 100
B34	63 relative, HeCon Ab = 100
B35	96.3 relative, HeCon Ab = 100
B36	46.8 relative, HeCon Ab = 100
B37	89.8 relative, HeCon Ab = 100
B38	6.3 relative, HeCon Ab = 100
B39	6.8 relative, HeCon Ab = 100
B40	19 relative, HeCon Ab = 100
B41	88.9 relative, HeCon Ab = 100
B42	18.9 relative, HeCon Ab = 100
B43	31 relative, HeCon Ab = 100
B44	64.9 relative, HeCon Ab = 100
